38 variants from the RNAGym collection of RNA variant scans (doi:10.7554/elife.80360) can be followed below.

Sequences and labels used below:
B1: Hairpin Ribozyme (parent)
chain: GUCCUCUUUCACGUGCGCGUGAAAGAGAGAAGUGAACCAGAGAAACACACGUUGUGGUAUAUUACCUGGUA

The variants in this data set derive from B1. In words: self-cleavage, relative activity (ratio to wild type); higher = more cleavage; co-transcriptional.
GUCCUCUUUCACGUGCGCGUGAAAGAGAGAAGUGAACAAGAGAAACACGCGUUGUGGUAUAUUACCUGGUA [C38A A49G]: the self-cleavage is 0.182.
As for GUCCUCUUUCACGUGCGCGUGAAAGAGAGAAGUGAACGGGAGAAACACACGUUGUGGUAUAUUACCUGGUA [C38G A39G], the self-cleavage is 0.117.
With GUCCUCUUUCACGUGCGCGUGAAAGAGAGAAGUGAACGCGAGAAACACACGUUGUGGUAUAUUACCUGGUA [C38G A39C], the self-cleavage is 0.146.
For GUCCUCUUUCACGUGCGCGUGAAAGAGAGAAGUGAACGAGAGAAACACACGUUGUGGUAUAAUACCUGGUA [C38G U62A], the self-cleavage is 0.127.
As to GUCCUCUUUCACGUGCGCGUGAAAGAGAGAAGUGAACAAGAGAAACACACGUUGUGGUAUAUUACUUGGUA [C38A C66U], the self-cleavage worked out at 0.0169.
GUCCUCUUUCACGUGCGCGUGAAAGAGAGAAGUGAACAAGAGAAACACACGUUGUGGUAUAUUACAUGGUA [C38A C66A]: the self-cleavage turned out to be 0.216.
Turning to GUCCUCUUUCACGUGCGCGUGAAAGAGAGAAGUGAACAAGAGAAACACACGUUGUGGUAUACUACCUGGUA [C38A U62C], the self-cleavage is 0.0746.
For the variant GUCCUCUUUCACGUGCGCGUGAAAGAGAGAAGUGAACAAGGGAAACACACGUUGUGGUAUAUUACCUGGUA [C38A A41G], the self-cleavage was 0.51.
Consider GUCCUCUUUCACGUGCGCGUGAAAGAGAGAAGUGAACAAGACAAACACACGUUGUGGUAUAUUACCUGGUA [C38A G42C], for which the self-cleavage is 0.0881.
Turning to GUCCUCUUUCACGUGCGCGUGAAAGAGAGAAGUGAACAAGAUAAACACACGUUGUGGUAUAUUACCUGGUA [C38A G42U], the self-cleavage turned out to be 0.112.
With GUCCUCUUUCACGUGCGCGUGAAAGAGAGAAGUGAACAAGAGAAACACACGUUGUGGUAGAUUACCUGGUA [C38A U60G], the self-cleavage turned out to be 0.218.
Under GUCCUCUUUCACGUGCGCGUGAAAGAGAGAAGUGAACUAGAGCAACACACGUUGUGGUAUAUUACCUGGUA [C38U A43C] stands 0.0947; under GUCCUCUUUCACGUGCGCGUGAAAGAGAGAAGUGAACAAGAGAUACACACGUUGUGGUAUAUUACCUGGUA [C38A A44U], 0.118; under GUCCUCUUUCACGUGCGCGUGAAAGAGAGAAGUGAACAAGAGAGACACACGUUGUGGUAUAUUACCUGGUA [C38A A44G], 0.144.
Turning to GUCCUCUUUCACGUGCGCGUGAAAGAGAGAAGUGAACGACAGAAACACACGUUGUGGUAUAUUACCUGGUA [C38G G40C], the self-cleavage was determined as 0.0961.
As for GUCCUCUUUCACGUGCGCGUGAAAGAGAGAAGUGAACAAGAGAAACACACGUUGUGGUAUCUUACCUGGUA [C38A A61C], the self-cleavage came to 0.174.
In the case of GUCCUCUUUCACGUGCGCGUGAAAGAGAGAAGUGAACAAGAGAAACACACGUUGUGGUAUGUUACCUGGUA [C38A A61G], the self-cleavage amounted to 0.258.
With GUCCUCUUUCACGUGCGCGUGAAAGAGAGAAGUGAACAAGAGAAACACACGUUGUGGUUUAUUACCUGGUA [C38A A59U], the self-cleavage was 0.134.
Consider GUCCUCUUUCACGUGCGCGUGAAAGAGAGAAGUGAACAAGAGAAACACACGUUGUGGUGUAUUACCUGGUA [C38A A59G], for which the self-cleavage amounted to 0.118.
As to GUCCUCUUUCACGUGCGCGUGAAAGAGAGAAGUGAACUAGAGAGACACACGUUGUGGUAUAUUACCUGGUA [C38U A44G], the self-cleavage worked out at 0.0449.
For GUCCUCUUUCACGUGCGCGUGAAAGAGAGAAGUGAACAAGAGAAACACACGUUGUGGUAUAUUACCUAGUA [C38A G68A], the self-cleavage came to 0.148.
On to GUCCUCUUUCACGUGCGCGUGAAAGAGAGAAGUGAACAAGAGAAACACACGUCGUGGUAUAUUACCUGGUA [C38A U53C], for which the self-cleavage was 0.228.
In the case of GUCCUCUUUCACGUGCGCGUGAAAGAGAGAAGUGAACAAGAGAAACACACGUAGUGGUAUAUUACCUGGUA [C38A U53A] it was 0.215.
Regarding GUCCUCUUUCACGUGCGCGUGAAAGAGAGAAGUGAACAAGAGAAACACACGUUGUGGUAUAUUAACUGGUA [C38A C65A], the self-cleavage was 0.198.
For the variant GUCCUCUUUCACGUGCGCGUGAAAGAGAGAAGUGAACAAGAGAAACACACGUUGUGGUAUAUUACCUGGCA [C38A U70C], the self-cleavage turned out to be 0.115.
Under GUCCUCUUUCACGUGCGCGUGAAAGAGAGAAGUGAACAAGAGAAACACACGUUGUGGUAUAUUACCUGGGA [C38A U70G] stands 0.141; under GUCCUCUUUCACGUGCGCGUGAAAGAGAGAAGUGAACAAGAGAAACACAUGUUGUGGUAUAUUACCUGGUA [C38A C50U], 0.15.
GUCCUCUUUCACGUGCGCGUGAAAGAGAGAAGUGAACAAGAGAAACACAAGUUGUGGUAUAUUACCUGGUA [C38A C50A]: the self-cleavage is 0.0919.
On to GUCCUCUUUCACGUGCGCGUGAAAGAGAGAAGUGAACGAGAGAAACACACGUUGUGGUAUAUUACCUGGCA [C38G U70C], for which the self-cleavage was found to be 0.157.
GUCCUCUUUCACGUGCGCGUGAAAGAGAGAAGUGAACGAGAGAAACACACGUUGUGGUAUAUUACCUCGUA [C38G G68C]: the self-cleavage amounted to 0.591.
In the case of GUCCUCUUUCACGUGCGCGUGAAAGAGAGAAGUGAACAAGAGAAACACACGUUGUGGAAUAUUACCUGGUA [C38A U58A], the self-cleavage worked out at 0.211.
GUCCUCUUUCACGUGCGCGUGAAAGAGAGAAGUGAACGAGAGAAACACACGUUAUGGUAUAUUACCUGGUA [C38G G54A]: the self-cleavage came out at 0.105.
Turning to GUCCUCUUUCACGUGCGCGUGAAAGAGAGAAGUGAACAAGAGAAACAAACGUUGUGGUAUAUUACCUGGUA [C38A C48A], the self-cleavage amounted to 0.14.
For GUCCUCUUUCACGUGCGCGUGAAAGAGAGAAGUGAACAAGAGAAACAGACGUUGUGGUAUAUUACCUGGUA [C38A C48G], the self-cleavage stood at 0.122.
Take GUCCUCUUUCACGUGCGCGUGAAAGAGAGAAGUGAACAAGAGAAAUACACGUUGUGGUAUAUUACCUGGUA [C38A C46U]: the self-cleavage worked out at 0.187.
In the case of GUCCUCUUUCACGUGCGCGUGAAAGAGAGAAGUGAACAAGAGAAACACACGUUGCGGUAUAUUACCUGGUA [C38A U55C], the self-cleavage amounted to 0.116.
Under GUCCUCUUUCACGUGCGCGUGAAAGAGAGAAGUGAAUCAGAGAAACACACGUUGUGGUAUAUGACCUGGUA [C37U U63G] stands 0.172; under GUCCUCUUUCACGUGCGCGUGAAAGAGAGAAGUGAACGAGAGAAACACACGUUGUGUUAUAUUACCUGGUA [C38G G57U], 0.116.
